Data set [1] deals with T1, biliverdin reductase (hBVR) (Homo sapiens, UniProt P53004 SEQ:1-296).
T1 chain: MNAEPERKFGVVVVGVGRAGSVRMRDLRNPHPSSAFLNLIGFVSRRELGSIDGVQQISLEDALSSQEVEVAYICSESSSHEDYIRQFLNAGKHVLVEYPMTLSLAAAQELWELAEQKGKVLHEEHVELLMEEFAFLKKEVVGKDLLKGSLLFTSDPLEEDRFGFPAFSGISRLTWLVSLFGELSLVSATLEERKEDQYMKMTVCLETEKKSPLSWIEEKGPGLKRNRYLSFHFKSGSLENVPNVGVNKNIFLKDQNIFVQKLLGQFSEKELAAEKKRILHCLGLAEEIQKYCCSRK
Description: EMSA; 10 mM Tris pH 7.4, 50 mM NaCl, 1 mM MgCl2, 1 mM EDTA, poly(dI-dC), room temperature. The following applies: tags: rabbit reticulocyte lysate, 35S-Met labelled; chain copies: 2 (stated homodimer); label: 32P 5'. As for the experimental part:
(§1) As with native gel analysis, in vitro translated proteins were assayed for DNA binding immediately after synthesis. 1 μl of translated material was added to 5000-500,000 cpm of [³²P]-labeled DNA fragment representing approximately 2-3 ng of DNA. 0.1 μg of poly (dI•dC) in 10 μl of DNA binding buffer was added to the labeled DNA. After incubating samples for 20 min at room temperature, 5 μl loading buffer was added. The samples were resolved on 12% native polyacrylamide gel with 35 m Amp at 4° C. The gels were processed as described above. Dried gels were put on two pieces of film separated by a piece of paper. Autoradiography was done at −70° C. for different time periods.
(§2) To determine whether the synthesized HBVR binds to DNA, the in vitro translated hBVR was incubated with [³²P]-labeled 56-mer or 100-mer DNA fragments. An identical 56 bp fragment in which the AP-I site was substituted with an unrelated sequence of equal length was used as control DNA. In addition, two identical 100 bp fragments with one AP-1 or zero AP-1 sites were synthesized and used as controls (OL.619, OL.620; OL.623-OL.630, Table 1). […] Also, binding of E. coli expressed hBVR protein, which is in monomeric form, to the 100-mer DNA fragment with two AP-1 sites was not detected.
A general note: In EMSA bound probe runs differently from free probe, usually more slowly.

Data set [2] deals with T2, heme oxygenase-1 (HO-1), in vitro translated (UniProt P09601 P09601:1-288).
T2 sequence: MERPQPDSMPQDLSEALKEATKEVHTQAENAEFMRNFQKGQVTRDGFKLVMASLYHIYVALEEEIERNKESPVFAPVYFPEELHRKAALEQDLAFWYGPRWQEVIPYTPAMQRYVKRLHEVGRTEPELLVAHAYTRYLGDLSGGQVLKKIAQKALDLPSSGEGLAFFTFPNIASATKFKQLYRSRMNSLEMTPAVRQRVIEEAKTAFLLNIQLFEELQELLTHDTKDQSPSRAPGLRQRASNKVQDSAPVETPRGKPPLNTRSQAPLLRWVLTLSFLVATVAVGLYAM
Description: EMSA; specificity control. The following applies: tags: rabbit reticulocyte lysate; label: 32P 5'.

Data set [3] addresses T3, heme oxygenase-1 (hHO-1), E. coli expressed (Homo sapiens, UniProt P09601 P09601:1-288).
T3 sequence: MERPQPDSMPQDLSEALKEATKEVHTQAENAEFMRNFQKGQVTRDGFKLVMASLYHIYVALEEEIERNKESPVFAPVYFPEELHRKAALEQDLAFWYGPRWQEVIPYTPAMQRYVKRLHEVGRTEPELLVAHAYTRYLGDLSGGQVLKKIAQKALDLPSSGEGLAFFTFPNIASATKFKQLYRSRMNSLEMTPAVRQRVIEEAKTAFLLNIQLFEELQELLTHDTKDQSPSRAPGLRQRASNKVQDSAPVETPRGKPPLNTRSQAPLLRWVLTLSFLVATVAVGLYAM
Description: EMSA; specificity control. The conditions noted are these: label: 32P 5'.

In the next data set the target is T4, hBVR K143A (Homo sapiens, UniProt P53004 SEQ:1-296, K143A).
T4 sequence: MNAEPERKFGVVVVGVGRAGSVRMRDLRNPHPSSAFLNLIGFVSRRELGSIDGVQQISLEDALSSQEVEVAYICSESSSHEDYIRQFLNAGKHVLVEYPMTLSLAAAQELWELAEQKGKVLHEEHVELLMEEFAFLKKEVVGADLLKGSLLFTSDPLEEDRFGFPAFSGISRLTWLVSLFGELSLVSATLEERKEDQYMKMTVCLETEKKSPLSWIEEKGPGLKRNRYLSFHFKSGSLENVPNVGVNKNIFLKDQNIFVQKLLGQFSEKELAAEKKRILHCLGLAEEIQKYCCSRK
Description: EMSA; signal same as native hBVR with zero AP-1 DNA. The following applies: tags: rabbit reticulocyte lysate; chain copies: 2; label: 32P 5'. How it is done:
as §1
(§3) For this set of experiments, the [³⁵S] methionine-labeled mutant BVR proteins were generated by in vitro translation and assayed on a 12% native gel for detection of the ˜69 kDa protein band and analysis of DNA for complex formation. The 100-mer DNA fragment with two AP-1 sites or without an AP-1 site were used. On the native gel the high molecular weight band was not detected with the mutated proteins.

In the next data set the target is T5, hBVR L157A (Homo sapiens, UniProt P53004 SEQ:1-296, L157A).
T5 sequence: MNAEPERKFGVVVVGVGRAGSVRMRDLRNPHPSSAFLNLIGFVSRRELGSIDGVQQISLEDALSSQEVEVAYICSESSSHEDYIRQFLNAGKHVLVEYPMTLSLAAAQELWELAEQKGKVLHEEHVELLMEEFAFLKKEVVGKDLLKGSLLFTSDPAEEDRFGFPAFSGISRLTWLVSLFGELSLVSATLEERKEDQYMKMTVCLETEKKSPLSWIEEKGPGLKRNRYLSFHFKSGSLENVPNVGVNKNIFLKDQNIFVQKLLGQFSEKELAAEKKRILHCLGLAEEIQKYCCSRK
Described as above. The following applies: tags: rabbit reticulocyte lysate; chain copies: 2; label: 32P 5'. As for the experimental part: as §1, §3

In another data set the target is T6, hBVR L150A (Homo sapiens, UniProt P53004 SEQ:1-296, L150A).
T6 sequence: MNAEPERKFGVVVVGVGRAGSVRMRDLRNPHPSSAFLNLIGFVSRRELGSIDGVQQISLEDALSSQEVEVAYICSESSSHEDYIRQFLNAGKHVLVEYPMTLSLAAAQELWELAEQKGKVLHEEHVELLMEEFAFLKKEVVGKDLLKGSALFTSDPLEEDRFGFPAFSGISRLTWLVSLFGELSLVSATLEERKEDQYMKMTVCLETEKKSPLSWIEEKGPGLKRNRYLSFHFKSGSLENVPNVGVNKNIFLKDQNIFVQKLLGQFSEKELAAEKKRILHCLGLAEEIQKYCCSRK
The data set is described as above. The following applies: tags: rabbit reticulocyte lysate; chain copies: 2; label: 32P 5'. How it is done: as §1, §3

For data set [4], the target named is T1, biliverdin reductase (hBVR). Description: EMSA. The conditions noted are these: tags: rabbit reticulocyte lysate, 35S-Met labelled; chain copies: 2 (stated homodimer); label: 32P 5'. How it is done: as §1, §2
Data set [5] deals with the molecule itself. Description: native PAGE (approx. 69 kDa band) against SDS-PAGE (~35 and ~40 kDa bands) of in vitro translated protein. As for the experimental part:
The transcribed mRNA was translated in the presence of [35S] methionine using rabbit reticulocyte lysate. In vitro translation was performed using micrococcal nuclease treated rabbit reticulocyte lysate (Promega). 50 μl reaction mixture was prepared by using 35 μl lysate, 1 μl of 0.1 M DTT, 2 μl of 1 mM amino acid mixture minus methionine, 1 μl of RNase inhibitor and 5 μl translation grade [³⁵S] methionine. 5 μl transcribed mRNA was added to the above reaction mixture and immediately incubated at 30° C. for 90 minutes. The in vitro translated proteins were resolved on 12% SDS or native polyacrylamide gel along with rainbow or native high molecular weight markers, respectively (Amersham Pharmacia). The gels were fixed in 10% acetic acid and 30% methanol then treated with autoradiography enhancer (Amplify, Amersham Pharmacia) for 30 min and dried under vacuum at 80° C. for 2 h, and autoradiographed at −70° C.
In vitro translated protein was assayed on native gel immediately after synthesis. […] A portion of the translated protein was treated with SDS and analyzed on denaturing 12% polyacrylamide gel.
Next, whether the protein synthesized by reticulocyte lysate is in fact hBVR was tested. […] As shown in the autoradiogram, two prominent bands at ˜35 and ˜40 kDa were detected. hBVR, based on its predicted amino acid composition, has a molecular weight of ˜34 kDa (Maines et al., Eur. J. Biochem.

Data set [6] concerns the molecule itself. Description: native 12% polyacrylamide gel, homodimer (~69 kDa band) formation. As for the experimental part:
In vitro translated protein was assayed on native gel immediately after synthesis. One μl of in vitro translated material was added to 2 μl (25 ng) of annealed, unlabelled control DNA fragment. To this 0.4 μg of poly dI•dC (Amersham Pharmacia) in 14 μl DNA binding buffer (10 mM Tris-chloride [pH 7.4], 50 mM NaCl, 1 mM MgCl₂, 1 mM EDTA, 1 mM DTT, 5% glycerol) was added. It was incubated for 5 min at room temperature and after adding 5 μl loading buffer (1.5×DNA binding buffer with bromophenol blue dye) samples were resolved on 12% native polyacrylamide gel in TAE buffer at 35 milliamps. The control DNA helps to prevent the formation of nonspecific protein aggregates, thereby increasing the resolution of protein bands (Halazonetis et al., Cell 55:917-924 (1988), which is hereby incorporated by reference in its entirety). A portion of the translated protein was treated with SDS and analyzed on denaturing 12% polyacrylamide gel.
as §3

B1: 100-mer HO-1 promoter, two AP-1 sites (OL.623/OL.624) (dsDNA)
DNA 1: TCCTCAGCTGCTTTTATGCTGTGTCATGGTTGGGAGGGGTGATTAGCAGACAAAGGGAAGACAGATTTTGCTGAGTCACCCTCTGTTCCCTCTGCCTCAG
DNA 2: CTGAGGCAGAGGGAACAGAGGGTGACTCAGCAAAATCTGTCTTCCCTTTGTCTGCTAATCACCCCTCCCAACCATGACACAGCATAAAAGCAGCTGAGGA
As for B1, the binding result was “binds” in [1]; “no binding” in data set [2]; “no binding” in data set [3]; “no binding” in the data set with hBVR K143A; “no binding” with hBVR L157A; “no binding” in the data set with hBVR L150A.

B2: 56-mer, one AP-1 site (OL.627/OL.628) (dsDNA)
DNA 1: CACTGAGAGAAACTATTACACAAGCCACATTAGCATGACTCATTGTTTCTGATCAG
DNA 2: CTGATCAGAAACAATGAGTCATGCTAATGTGGCTTGTGTAATAGTTTCTCTCAGTG
Take B2: the binding result in [2] and in data set [4] was “no binding” in each case.

B3: in vitro translated human biliverdin reductase (hBVR) (enzyme)
chain: MNAEPERKFGVVVVGVGRAGSVRMRDLRNPHPSSAFLNLIGFVSRRELGSIDGVQQISLEDALSSQEVEVAYICSESSSHEDYIRQFLNAGKHVLVEYPMTLSLAAAQELWELAEQKGKVLHEEHVELLMEEFAFLKKEVVGKDLLKGSLLFTSDPLEEDRFGFPAFSGISRLTWLVSLFGELSLVSATLEERKEDQYMKMTVCLETEKKSPLSWIEEKGPGLKRNRYLSFHFKSGSLENVPNVGVNKNIFLKDQNIFVQKLLGQFSEKELAAEKKRILHCLGLAEEIQKYCCSRK
notes: the entries concern its self-association into a homodimer; also called translated hBVR; native in vitro translated hBVR
In the case of B3, the binding result in data set [5] is reported as “binds”.

B4: in vitro translated hBVR mutant L157A (enzyme)
chain: MNAEPERKFGVVVVGVGRAGSVRMRDLRNPHPSSAFLNLIGFVSRRELGSIDGVQQISLEDALSSQEVEVAYICSESSSHEDYIRQFLNAGKHVLVEYPMTLSLAAAQELWELAEQKGKVLHEEHVELLMEEFAFLKKEVVGKDLLKGSLLFTSDPAEEDRFGFPAFSGISRLTWLVSLFGELSLVSATLEERKEDQYMKMTVCLETEKKSPLSWIEEKGPGLKRNRYLSFHFKSGSLENVPNVGVNKNIFLKDQNIFVQKLLGQFSEKELAAEKKRILHCLGLAEEIQKYCCSRK
notes: Site-directed mutant made in p507 and translated in vitro with [35S] methionine; also called L5 mutant
With B4, the binding result in data set [6] is “no binding”.

B5: in vitro translated hBVR mutant K143A (enzyme)
chain: MNAEPERKFGVVVVGVGRAGSVRMRDLRNPHPSSAFLNLIGFVSRRELGSIDGVQQISLEDALSSQEVEVAYICSESSSHEDYIRQFLNAGKHVLVEYPMTLSLAAAQELWELAEQKGKVLHEEHVELLMEEFAFLKKEVVGADLLKGSLLFTSDPLEEDRFGFPAFSGISRLTWLVSLFGELSLVSATLEERKEDQYMKMTVCLETEKKSPLSWIEEKGPGLKRNRYLSFHFKSGSLENVPNVGVNKNIFLKDQNIFVQKLLGQFSEKELAAEKKRILHCLGLAEEIQKYCCSRK
notes: Site-directed mutant made in p507 and translated in vitro with [35S] methionine; also called K3 mutant
B5: the binding result in [6] is “no binding”.

B6: in vitro translated hBVR mutant L150A (enzyme)
chain: MNAEPERKFGVVVVGVGRAGSVRMRDLRNPHPSSAFLNLIGFVSRRELGSIDGVQQISLEDALSSQEVEVAYICSESSSHEDYIRQFLNAGKHVLVEYPMTLSLAAAQELWELAEQKGKVLHEEHVELLMEEFAFLKKEVVGKDLLKGSALFTSDPLEEDRFGFPAFSGISRLTWLVSLFGELSLVSATLEERKEDQYMKMTVCLETEKKSPLSWIEEKGPGLKRNRYLSFHFKSGSLENVPNVGVNKNIFLKDQNIFVQKLLGQFSEKELAAEKKRILHCLGLAEEIQKYCCSRK
notes: Site-directed mutant made in p507 and translated in vitro with [35S] methionine; also called L4 mutant
On to B6, for which the binding result in data set [6] is “no binding”.

Source of the values: patent US20050119205A1, “Methods of modulating heme oxygenase-1 expression and treating heme oxygenase-1 mediated conditions” (published 2005).
